From publication PMC7994586, “The box C/D snoRNP assembly factor Bcd1 interacts with the histone chaperone Rtt106 and controls its transcription dependent activity” (Nature Communications, 2021)
Blank lines part the entries; values can stand above or below the binder they belong to. Where no end group is shown, it is not given here.

B2: recombinant Bcd1pFL, purified (natural protein, S. cerevisiae, UniProt P38772 1-366, looked up)
chain: MAVLCGVCGIKEFKYKCPRCLVQTCSLECSKKHKTRDNCSGQTHDPKEYISSEALKQADDDKHERNAYVQRDYNYLTQLKRMVHVQKMDARMKNKRVLGPVGGHNSNFKKRRYDIDEDDRDSTECQRIIRRGVNCLMLPKGMQRSSQNRSKWDKTMDLFVWSVEWILCPMQEKGEKKELFKHVSHRIKETDFLVQGMGKNVFQKCCEFYRLAGTSSCIEGEDGSETKEERTQILQKSGLKFYTKTFPYNTTHIMDSKKLVELAIHEKCIGELLKNTTVIEFPTIFVAMTEADLPEGYEVLHQEPRPLEHTSTLNKFIDNAREEEDAEEDSQPTEEPVQKETQDASDSDSDSDDDYNPGLSMDFLTA
notes: Bcd1p, S. cerevisiae, full length; Detected by native MS with two zinc ions (42,752 Da); also called Bcd1FL; full-length Bcd1p
B3: recombinant fragment Rtt106p-M (Rtt106p_(65-320)), purified (domain or fragment, S. cerevisiae, UniProt P40161 65-320, looked up)
chain: DEISETNTIFKLEGVSVLSPLRKKLDLVFYLSNVDGSPVITLLKGNDRELSIYQLNKNIKMASFLPVPEKPNLIYLFMTYTSCEDNKFSEPVVMTLNKENTLNQFKNLGLLDSNVTDFEKCVEYIRKQAILTGFKISNPFVNSTLVDTDAEKINSFHLQCHRGTKEGTLYFLPDHIIFGFKKPILLFDASDIESITYSSITRLTFNASLVTKDGEKYEFSMIDQTEYAKIDDYVKRKQMKDKSMSEELKAKSKSKG
notes: Rtt106p, yeast, residues 65-320 (tandem PH1 and PH2 domains); Native MS mass 29,695 Da; also called 65-320 (M) domain of Rtt106p

What was measured:
[1] = target: T1, recombinant fragment Rtt106p-M (Rtt106p_(65-320)), purified (S. cerevisiae, UniProt P40161 65-320); test: ITC
T1 chain: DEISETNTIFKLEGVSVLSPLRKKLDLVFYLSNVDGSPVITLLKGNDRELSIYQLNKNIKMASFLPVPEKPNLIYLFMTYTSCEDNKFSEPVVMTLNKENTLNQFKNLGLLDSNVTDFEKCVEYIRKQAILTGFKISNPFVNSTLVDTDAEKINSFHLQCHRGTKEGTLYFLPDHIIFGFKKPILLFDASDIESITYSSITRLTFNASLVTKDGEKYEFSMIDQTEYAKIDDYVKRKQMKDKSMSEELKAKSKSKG

[2] = target: B3; test: native MS; individual partners and co-purified complex in 150 mM ammonium acetate pH 7.5, nanoESI, nondenaturing conditions; settings: both partners purified
[3] = target: B2; test: ITC; 293 K, 10 mM NaPi pH 7.5, 150 mM NaCl, 0.5 mM TCEP; 40 μM titrated, 400 μM titrant; settings: both partners purified
Rtt106p_(65-301) [4] = target: T2, Rtt106p_(65-301) (S. cerevisiae, UniProt P40161 65-301); test: ITC
T2 chain: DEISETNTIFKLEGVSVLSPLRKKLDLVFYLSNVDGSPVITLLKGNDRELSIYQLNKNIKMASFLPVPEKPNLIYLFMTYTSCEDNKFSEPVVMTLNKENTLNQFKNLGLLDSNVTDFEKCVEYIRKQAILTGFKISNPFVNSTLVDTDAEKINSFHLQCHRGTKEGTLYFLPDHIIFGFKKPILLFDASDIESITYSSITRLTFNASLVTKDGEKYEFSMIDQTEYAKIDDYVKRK

[5] = target: T3, Rtt106p_(65-301) bound to Bcd1p_(120-303) (S. cerevisiae, UniProt P40161 65-301; P38772 120-303); test: ITC
T3 chain 1: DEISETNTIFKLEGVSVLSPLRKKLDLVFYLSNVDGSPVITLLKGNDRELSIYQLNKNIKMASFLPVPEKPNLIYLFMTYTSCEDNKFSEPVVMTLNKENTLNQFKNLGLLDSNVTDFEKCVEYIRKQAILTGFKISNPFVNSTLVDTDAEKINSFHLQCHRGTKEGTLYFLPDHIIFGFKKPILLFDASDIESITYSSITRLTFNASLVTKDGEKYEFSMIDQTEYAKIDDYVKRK
T3 chain 2: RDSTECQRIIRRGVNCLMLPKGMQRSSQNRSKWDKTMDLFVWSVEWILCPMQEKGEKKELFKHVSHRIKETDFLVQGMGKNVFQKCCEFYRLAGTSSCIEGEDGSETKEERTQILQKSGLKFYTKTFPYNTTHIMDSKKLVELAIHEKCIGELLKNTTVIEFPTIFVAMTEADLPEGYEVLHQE

[6] = target: T4, Rtt106p_(65-301) bound to Bcd1p_(120-303) (S. cerevisiae, UniProt P40161 65-301; P38772 120-303); test: ITC; H3K56ac peptide (2 mM) as the titrant into 200 μM Rtt106p_(65-301) with or without Bcd1p_(120-303); settings: both partners purified
T4 construct: Rtt106p, yeast, residues 65-301; as the chain of m19; as the chain of m18; Formed before titration with the H3K56ac peptide; source: E. coli BL21 pRARE2, purified proteins, mixed; not shown: His6, N-terminal, cleaved; copies: 1 + 1
T4 sequence (looked up) 1: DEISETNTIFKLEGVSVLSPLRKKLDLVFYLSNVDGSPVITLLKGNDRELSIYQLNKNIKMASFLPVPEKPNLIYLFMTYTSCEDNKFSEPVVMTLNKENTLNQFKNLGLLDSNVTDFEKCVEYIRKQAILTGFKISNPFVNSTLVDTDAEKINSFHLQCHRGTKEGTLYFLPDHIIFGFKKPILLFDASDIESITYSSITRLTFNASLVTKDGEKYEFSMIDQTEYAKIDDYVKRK
T4 sequence (looked up) 2: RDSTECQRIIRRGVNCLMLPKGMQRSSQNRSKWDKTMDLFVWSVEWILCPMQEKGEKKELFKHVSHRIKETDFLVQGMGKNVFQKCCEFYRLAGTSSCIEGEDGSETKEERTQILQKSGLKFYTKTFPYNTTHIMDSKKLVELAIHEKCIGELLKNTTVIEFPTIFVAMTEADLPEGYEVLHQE

Rtt106p_(65-301) [7] = target: T5, Rtt106p_(65-301) (S. cerevisiae, UniProt P40161 65-301); test: as above; settings: both partners purified
T5 construct: Rtt106p, yeast, residues 65-301 (tandem PH domains); also called Rtt106_(65-301); source: E. coli BL21 pRARE2, purified
T5 sequence (looked up): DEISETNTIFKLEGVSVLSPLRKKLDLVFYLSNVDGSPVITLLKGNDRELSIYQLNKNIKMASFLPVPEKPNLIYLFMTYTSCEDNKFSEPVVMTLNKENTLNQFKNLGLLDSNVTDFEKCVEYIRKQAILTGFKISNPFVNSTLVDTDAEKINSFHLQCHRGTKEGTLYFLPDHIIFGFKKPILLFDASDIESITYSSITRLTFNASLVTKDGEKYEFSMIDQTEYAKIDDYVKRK

Rtt106p_(65-301) [8] = target: T5, Rtt106p_(65-301); test: ITC; 293 K, 10 mM NaPi pH 7.5, 150 mM NaCl, 0.5 mM TCEP; 40 μM titrated, 400 μM titrant; settings: both partners purified

Kd [1]: 1740 nM
B1: Bcd1p120-366 (protein)
chain: RDSTECQRIIRRGVNCLMLPKGMQRSSQNRSKWDKTMDLFVWSVEWILCPMQEKGEKKELFKHVSHRIKETDFLVQGMGKNVFQKCCEFYRLAGTSSCIEGEDGSETKEERTQILQKSGLKFYTKTFPYNTTHIMDSKKLVELAIHEKCIGELLKNTTVIEFPTIFVAMTEADLPEGYEVLHQEPRPLEHTSTLNKFIDNAREEEDAEEDSQPTEEPVQKETQDASDSDSDSDDDYNPGLSMDFLTA

Binder: B2
stoichiometry N [2]: 1

Binder: B3
Kd [3]: 1170 ± 170 nM

Kd (Rtt106p_(65-301) [4]): 714000 nM | Kd [5]: 649000 nM | binding result [6]: binds | binding result (Rtt106p_(65-301) [7]): binds
B4: H3K56ac (IRRFQKacSTELL) peptide (peptide)
peptide: IRRFQK(Ac)STELL
notes: histone H3 stretch around lysine 56, acetylated at K56; also called acetylated peptide; source: synthetic peptide, bought: Proteogenix

Kd (Rtt106p_(65-301) [4]): 1630 nM | Kd [1]: 1160 nM | Kd (Rtt106p_(65-301) [8]): 940 ± 60 nM
B5: Bcd1p_(120-303) (domain or fragment, S. cerevisiae, UniProt P38772 120-303, looked up)
chain: RDSTECQRIIRRGVNCLMLPKGMQRSSQNRSKWDKTMDLFVWSVEWILCPMQEKGEKKELFKHVSHRIKETDFLVQGMGKNVFQKCCEFYRLAGTSSCIEGEDGSETKEERTQILQKSGLKFYTKTFPYNTTHIMDSKKLVELAIHEKCIGELLKNTTVIEFPTIFVAMTEADLPEGYEVLHQE
notes: Tag removal is told for the NMR preparation; the preparation for ITC is not described separately; source: E. coli BL21 pRARE2, purified (TALON, PreScission cleavage, gel filtration); not shown: His6, N-terminal, cleaved
